{"source": "patent US20250066490A1", "about": "“ANTI-CD70 ANTIBODIES, CONJUGATES THEREOF AND METHODS OF USING THE SAME” (ProfoundBio US Co., priority 2021, published 2025)", "molecules": {"B1": {"name": "2E7: anti-CD70 antibody clone, VH SEQ 7 and VL SEQ 8; tested as scFv and full human IgG1/kappa (antibody, V domains shown)", "VH": "QVQLQESGPGLVKPSETLSLTCTVSGGSVSSDYYYWSWIRQPPGKGLEWLGYIYYSGSTNYNPSLKSRVTISVDTSKNQFSLKLRSVTTADTAVYYCARGDGDFLGVCFDYWGQGTLVTVSS", "VL": "EIVLTQSPATLSLSPGERATLSCRASQSVSSYLAWYQQKPGQAPRLLIFDASNRATGIPARFSGSGSGTDFTLTISSLEPEDFAVYYCQQRSNWPLTFGGGTKVEIK", "modifications": "Synthetic 2E7 VH amino acid sequence; Synthetic 2E7 VL amino acid sequence", "notes": "tested as scFv and full human IgG1/kappa"}}, "key": {"2E7 rat PK": {"assay": "2E7 rat PK", "type": "in vivo, Sprague Dawley rats", "conditions": "intravenous infusion, 3 mg/kg, FIG. 14", "description": "2E7 was administered via intravenous infusion at 3 mg/kg to male Sprague Dawley rats (n=3 per group). Orbital blood was sampled from each rat at various time points post dosing. Circulating concentrations of 2E7 were analyzed by an ELISA assay (ProfoundBio) and calculated using the GraphPad Prism 6 software."}, "[1]": {"test_system": "786-O, Caki-1, U251 and DBTRG-05MG cells", "assay": "Antibody binding by flow cytometry, statements across all four tumor cell lines", "parameters": "species or system human", "conditions": "range over the four cell lines", "description": "The lead antibodies were tested for binding to renal carcinoma cells and glioblastoma cells expressing CD70 on the cell surface by flow cytometry. Cell lines 786-O (ATCC® CRL-1932™, provided by COBIOER), Caki-1 (ATCC® HTB-46™, provided by COBIOER), U251 and DBTRG-05MG (ATCC® CRL-2020™, provided by COBIOER) were each tested for antibody binding. 786-O cells were cultured with RPMI 1640 medium (Gibco, Cat #11875093) containing of 10% FBS (Gibco, Cat #10099141) while Caki-1 cells were cultured with McCoy's 5a Modified medium (Gibco, Cat #16600082) containing 10% FBS. U251 cells were cultured with MEM medium containing of 10% FBS and 1% NEAA+1 mM sodium pyruvate. DBTRG-05MG cells were cultured with DMEM medium (Gibco, Cat #C11995500BT) containing of 10% FBS. Each of the lead antibodies and the controls were incubated for 30 mins with the different cell lines (3×10^5 cells per well) in 0.2 ml FACS buffer (1×PBS with 0.1% BSA) at 4° C. Then, the cells were pelleted, washed, and incubated at 4° C. for 30 mins with 100 μl of 1:200 diluted PE-conjugated anti human Fc (Abcam, Ab98596) in FACS buffer. The cells were pelleted again, washed with PBS, resuspended in FACS buffer and analyzed by flow cytometer (Beckman, CytoFLEX)."}, "786-O cells": {"test_system": "786-O cells", "assay": "Internalization by FACS immune-fluorescence staining, 786-O", "type": "cell-based, human", "description": "Briefly, 2×10^5 cells were harvested from a tissue culture flask by treatment with 0.25% Trypsin/EDTA and then incubated with 10 μg/ml of the lead antibodies or control antibodies in FACS buffer (1×PBS with 0.1% BSA) for 30 mins at 4° C. The cells were washed at 4° C. to remove unbound antibodies and kept on ice or shifted to 37° C. At the set time points (0 h, 4 h, 24 h), cells were incubated with PE-conjugated anti human Fc (Abcam, Ab98596) for 30 mins at 4° C. and then analyzed by flow cytometry. The internalization ratio was calculated by subtracting the 37° C. MFI from the 4° C. MFI, and then compared with 4° C. MFI.\nFour cell lines ([…]), Caki-1, Raji, MCF-7) were utilized in the internalization assay. Target (CD70) copy numbers were determined via the QIFIKIT (DAKO, K0078). Briefly, cells were labeled with a primary mouse monoclonal antibody against CD70. Cells, Set-up beads, Calibration beads (from the kit) were then labeled in parallel with a fluorescein-conjugated anti-mouse secondary antibody. The fluorescence is correlated with the number of bound primary antibody molecules on the cells and on the beads. Samples were subsequently analyzed on the flow cytometer and copy number determined based on the calibration curve (Table 11). For internalization assay, 3×10^5 cells were incubated at 4° C. for 30 min with 10 µg/ml 2E7 in FACS buffer (1×PBS containing 0.1% BSA). Cells were washed at 4° C. to remove unbound material and kept on ice or shifted to 37° C. for different lengths of time. At progressive timepoints ([…], 0.5, 1, 2, 3, 4 hr) cells were stained with PE-conjugated anti-human Fc for 30 min at 4° C. and analyzed by flow cytometry. Internalization rate were calculated by subtracting the mean fluorescence intensity (MFI) of cell surface-bound antibody at 37° C. at each time point from the MFI of cell surface-bound antibody at 4° C. at time 0, then divided by the MFI of the cell surface-bound antibody at 4° C. at time 0."}}}
{"molecule": "B1", "values": [{"measurement": "plasma PK", "setting": "2E7 rat PK", "value": "stable plasma PK in rat that is characteristic of IgG1 antibodies"}, {"measurement": "EC50 relative to that of antibody 69A7", "setting": "[1]", "value": "1.8˜3.5 times"}, {"measurement": "absolute amount of antibody internalized into cell vs parent antibody 69A7", "setting": "786-O cells; based on the cell binding affinity", "value": "higher absolute amount of antibody internalized into cell than the parent antibody 69A7"}, {"measurement": "internalization, time course", "setting": "786-O cells; up to 4 hr, FIG. 13", "value": "rapid internalization"}]}
